# According to article PMC9479004, “Cloning and characterization of a novel functional organic anion transporting polypeptide 3A1 isoform highly expressed in the human brain and testis” (Frontiers in Pharmacology, 2022):
# B1: OATP3A1_V1 (Homo sapiens; E294D) (protein)
# chain: MQGKKPGGSSGGGRSGELQGDEAQRNKKKKKKVSCFSNIKIFLVSECALMLAQGTVGAYLVSVLTTLERRFNLQSADVGVIASSFEIGNLALILFVSYFGARGHRPRLIGCGGIVMALGALLSALPEFLTHQYKYEAGEIRWGAEGRDVCAANGSGGDEGPDPDLICRNRTATNMMYLLLIGAQVLLGIGATPVQPLGVSYIDDHVRRKDSSLYIGILFTMLVFGPACGFILGSFCTKIYVDAVFIDTSNLDITPDDPRWIGAWWGGFLLCGALLFFSSLLMFGFPQSLPPHSDPAMESEQAMLSEREYERPKPSNGVLRHPLEPDSSASCFQQLRVIPKVTKHLLSNPVFTCIILAACMEIAVVAGFAAFLGKYLEQQFNLTTSSANQLLGMTAIPCACLGIFLGGLLVKKLSLSALGAIRMAMLVNLVSTACYVSFLFLGCDTGPVAGVTVPYGNSTAPGSALDPYSPCNNNCECQTDSFTPVCGADGITYLSACFAGCNSTNLTGCACLTTVPAENATVVPGKCPSPGCQEAFLTFLCVMCICSLIGAMAQTPSVIILIRTVSPELKSYALGVLFLLLRLLGFIPPPLIFGAGIDSTCLFWSTFCGEQGACVLYDNVVYRYLYVSIAIALKSFAFILYTTTWQCLRKNYKRYIKNHEGGLSTSEFFASTLTLDNLGRDPVPANQTHRTKFIYNLEDHEWCENMESVL
# notes: full-length ORF from brain RNA, 710 residues, E294D polymorphism (rs1517618), untagged, lentiviral overexpression in HEK-293
# B2: OATP3A1_V3 (Homo sapiens; E294D) (protein)
# chain: MQGKKPGGSSGGGRSGELQGDEAQRNKKKKKKVSCFSNIKIFLVSECALMLAQGTVGAYLVSVLTTLERRFNLQSADVGVIASSFEIGNLALILFVSYFGARGHRPRLIGCGGIVMALGALLSALPEFLTHQYKYEAGEIRWGAEGRDVCAANGSGGDEGPDPDLICRNRTATNMMYLLLIGAQVLLGIGATPVQPLGVSYIDDHVRRKDSSLYIGILFTMLVFGPACGFILGSFCTKIYVDAVFIDTSNLDITPDDPRWIGAWWGGFLLCGALLFFSSLLMFGFPQSLPPHSDPAMESEQAMLSEREYERPKPSNGVLRHPLEPDSSASCFQQLRVIPKVTKHLLSNPVFTCIILAACMEIAVVAGFAAFLGKYLEQQFNLTTSSANQLLGMTAIPCACLGIFLGGLLVKKLSLSALGAIRMAMLVNLVSTACYVSFLFLGCDTGPVAGVTVPYGNSTAPGSALDPYSPCNNNCECQTDSFTPVCGADGITYLSACFAGCNSTNLTGCACLTTVPAENATVVPGKCPSPGCQEAFLTFLCVMCICSLIGAMAQTPSVIILIRTVSPELKSYALGVLFLLLRLLGFIPPPLIFGAGIDSTCLFWSTFCGEQGACVLYDNVVYRYLYVSIAIALKSFAFILYTTTWQCLRKNYKRYIKNHEGGLSTTSEPDRIQNKERMTSCGRVLEATCAAGPQSLL
# notes: full-length ORF from brain RNA, 697 residues, E294D polymorphism (rs1517618), untagged, lentiviral overexpression in HEK-293; C-terminal peptide (C)VLEATCAAGPQSLL
# B3: OATP3A1_V2 (Homo sapiens; E294D) (protein)
# chain: MQGKKPGGSSGGGRSGELQGDEAQRNKKKKKKVSCFSNIKIFLVSECALMLAQGTVGAYLVSVLTTLERRFNLQSADVGVIASSFEIGNLALILFVSYFGARGHRPRLIGCGGIVMALGALLSALPEFLTHQYKYEAGEIRWGAEGRDVCAANGSGGDEGPDPDLICRNRTATNMMYLLLIGAQVLLGIGATPVQPLGVSYIDDHVRRKDSSLYIGILFTMLVFGPACGFILGSFCTKIYVDAVFIDTSNLDITPDDPRWIGAWWGGFLLCGALLFFSSLLMFGFPQSLPPHSDPAMESEQAMLSEREYERPKPSNGVLRHPLEPDSSASCFQQLRVIPKVTKHLLSNPVFTCIILAACMEIAVVAGFAAFLGKYLEQQFNLTTSSANQLLGMTAIPCACLGIFLGGLLVKKLSLSALGAIRMAMLVNLVSTACYVSFLFLGCDTGPVAGVTVPYGNSTAPGSALDPYSPCNNNCECQTDSFTPVCGADGITYLSACFAGCNSTNLTGCACLTTVPAENATVVPGKCPSPGCQEAFLTFLCVMCICSLIGAMAQTPSVIILIRTVSPELKSYALGVLFLLLRLLGFIPPPLIFGAGIDSTCLFWSTFCGEQGACVLYDNVVYRYLYVSIAIALKSFAFILYTTTWQCLRKNYKRYIKNHEGGLSTSTEYQDIETEKTCPESHSPSEDSFVRS
# notes: full-length ORF from brain RNA, 692 residues, E294D polymorphism (rs1517618), untagged, lentiviral overexpression in HEK-293
# Substrate: CCN(CC)c1ccc2cc(/C=C/c3cc[n+](CCCN=[N+]=[N-])cc3S(=O)(=O)[O-])c(=O)oc2c1
# Test: fluorescent dye uptake by flow cytometry, HEK-293 overexpressing cells
# Assay type: cell-based, Homo sapiens
# Conditions: pH 7.4, 37 °C, 10 min, 5-400 µM ACPS, mock-subtracted
row,Protein,Km [µM]
1,B1,37.7
2,B2,35
3,B3,31.7
